Data from US20180016354A1 (Merck KGaA, published 2018).

Target: T1, CD16a receptor (FcγIIIa) (UniProt P08637 17-254, limits assumed)
T1 construct: whole, on cells
Assay: CD16a HTRF cellular binding assay (CisBio), competition with labeled human IgG
Description: FIG. 14: Binding of antibodies to CD16a receptor. Binding was measured using CD16a HTRF cellular binding assay (CisBio). Measurement was performed in duplicates.

T1 sequence (P08637 17-254 limits assumed): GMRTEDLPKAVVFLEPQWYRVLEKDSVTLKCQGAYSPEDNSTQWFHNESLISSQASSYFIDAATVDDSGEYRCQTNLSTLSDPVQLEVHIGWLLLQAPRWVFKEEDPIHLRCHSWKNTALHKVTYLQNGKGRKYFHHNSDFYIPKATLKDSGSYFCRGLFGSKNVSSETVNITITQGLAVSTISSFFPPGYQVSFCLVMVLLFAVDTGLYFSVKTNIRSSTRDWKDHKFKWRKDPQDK

B1: One-armed Effector Negative (EN) domain-exchanged anti-EGFR antibody (antibody)
heavy: QVQLVQSGAEVKKPGASVKVSCKASGYTFTSHWMHWVRQAPGQGLEWIGEFNPSNGRTNYNEKFKSKATMTVDTSTNTAYMELSSLRSEDTAVYYCASRDYDYDGRYFDYWGQGTLVTVSSASTKGEPQVYTLPPSRDELTKNQVSLYCLVKGFYPSDIAVEWESNGQPENNYKTTPPVLDSDGSFFLYSKLTVDKSRWQQGNVFSCSVMHEALHNHYTQKSLSLSKSCDKTHTCPPCPAPPVAGPSVFLFPPKPKDTLMISRTPEVTCVVVDVSHEDPEVQFNWYVDGVEVHNAKTKPREEQAQSTFRVVSVLTVVHQDWLNGKEYKCKVSNKGLPAPIEKTISKTKGQPFRPEVHLLPPSREEMTKNQVSLTCLARGFYPKDIAVEWESNGQPENNYKTTPSRQEPSQGTTTFAVTSKLTVDKSRWQQGNVFSCSVMHEALHNHYTQKTISLSPGK
chain: EPKSSDKTHTCPPCPAPPVAGPSVFLFPPKPKDTLMISRTPEVTCVVVDVSHEDPEVQFNWYVDGVEVHNAKTKPREEQAQSTFRVVSVLTVVHQDWLNGKEYKCKVSNKGLPAPIEKTISKTKGQPREPQVYTLPPPSEELALNELVTLTCLVKGFYPSDIAVEWLQGSQELPREKYLTWAPVLDSDGSFFLYSILRVAAEDWKKGDTFSCSVMHEALHNHYTQKSLDRSPGK
light: DIQMTQSPSSLSASVGDRVTITCSASSSVTYMYWYQQKPGKAPKLLIYDTSNLASGVPSRFSGSGSGTDYTFTISSLQPEDIATYYCQQWSSHIFTFGQGTKVEIKRTVAEPQVYTLPPSRDELTKNQVSLTCLVKGFYPSDIAVEWESNGQPENNYKTTPPVLDSDGSFFLTSKLTVDKSRWQQGNVFSCSVMHEALHNHYTQKSLSLSGEC
notes: One Fab arm only; effector negative Fc (modified IgG2 CH2 F296A, N297Q); also called one-armed domain-exchanged EN anti-EGFR antibody; one-armed effector negative anti-EGFR antibody
B1: no binding.
